Test results reported in US20170166895.

Key:
[1] = molecular target: T1, Complement component 3 (C3) (Homo sapiens) (UniProt P01024+P01024); assay: filter; settings: 3'-3' idT
[2] = molecular target: T1, Complement component 3 (C3) (Homo sapiens); assay: inhibition; settings: P = NapdU (all U); 3'-3' idT; hemolysis, 20 nM C3, GVB++, 37 C
[3] = all P = NapdU, 2'-OMe at 1,2,3,5,7,9,10,13,19,20,22-28, C3-spacer replaces C17, SB18T0.01, 37C
[4] = all P = NapdU, U1 = 2'-OMe-U, 2'-OMe at 1,2,3,5,7,9,10,13,19,20,22-28, C3-spacer replaces C17, SB18T0.01, 37C

T1 sequence (P01024 23-667, chain 1 of 2): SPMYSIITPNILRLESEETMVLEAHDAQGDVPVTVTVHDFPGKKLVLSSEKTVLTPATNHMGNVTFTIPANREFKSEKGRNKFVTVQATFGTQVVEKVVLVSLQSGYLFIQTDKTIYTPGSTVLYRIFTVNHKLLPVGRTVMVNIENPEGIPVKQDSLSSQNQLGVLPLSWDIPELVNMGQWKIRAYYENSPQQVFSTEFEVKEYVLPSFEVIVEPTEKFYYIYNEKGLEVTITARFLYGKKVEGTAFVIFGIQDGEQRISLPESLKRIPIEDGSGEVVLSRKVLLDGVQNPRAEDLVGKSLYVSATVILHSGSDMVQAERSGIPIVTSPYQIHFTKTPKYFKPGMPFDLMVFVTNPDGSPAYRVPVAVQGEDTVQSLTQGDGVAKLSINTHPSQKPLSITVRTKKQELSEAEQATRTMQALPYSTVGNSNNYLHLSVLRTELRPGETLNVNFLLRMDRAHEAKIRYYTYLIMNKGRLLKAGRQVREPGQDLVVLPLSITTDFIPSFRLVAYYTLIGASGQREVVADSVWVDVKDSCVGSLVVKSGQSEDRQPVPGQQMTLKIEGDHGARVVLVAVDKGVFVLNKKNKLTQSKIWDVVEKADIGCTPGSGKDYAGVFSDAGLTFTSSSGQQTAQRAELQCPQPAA
T1 sequence (P01024 672-1663, chain 2 of 2): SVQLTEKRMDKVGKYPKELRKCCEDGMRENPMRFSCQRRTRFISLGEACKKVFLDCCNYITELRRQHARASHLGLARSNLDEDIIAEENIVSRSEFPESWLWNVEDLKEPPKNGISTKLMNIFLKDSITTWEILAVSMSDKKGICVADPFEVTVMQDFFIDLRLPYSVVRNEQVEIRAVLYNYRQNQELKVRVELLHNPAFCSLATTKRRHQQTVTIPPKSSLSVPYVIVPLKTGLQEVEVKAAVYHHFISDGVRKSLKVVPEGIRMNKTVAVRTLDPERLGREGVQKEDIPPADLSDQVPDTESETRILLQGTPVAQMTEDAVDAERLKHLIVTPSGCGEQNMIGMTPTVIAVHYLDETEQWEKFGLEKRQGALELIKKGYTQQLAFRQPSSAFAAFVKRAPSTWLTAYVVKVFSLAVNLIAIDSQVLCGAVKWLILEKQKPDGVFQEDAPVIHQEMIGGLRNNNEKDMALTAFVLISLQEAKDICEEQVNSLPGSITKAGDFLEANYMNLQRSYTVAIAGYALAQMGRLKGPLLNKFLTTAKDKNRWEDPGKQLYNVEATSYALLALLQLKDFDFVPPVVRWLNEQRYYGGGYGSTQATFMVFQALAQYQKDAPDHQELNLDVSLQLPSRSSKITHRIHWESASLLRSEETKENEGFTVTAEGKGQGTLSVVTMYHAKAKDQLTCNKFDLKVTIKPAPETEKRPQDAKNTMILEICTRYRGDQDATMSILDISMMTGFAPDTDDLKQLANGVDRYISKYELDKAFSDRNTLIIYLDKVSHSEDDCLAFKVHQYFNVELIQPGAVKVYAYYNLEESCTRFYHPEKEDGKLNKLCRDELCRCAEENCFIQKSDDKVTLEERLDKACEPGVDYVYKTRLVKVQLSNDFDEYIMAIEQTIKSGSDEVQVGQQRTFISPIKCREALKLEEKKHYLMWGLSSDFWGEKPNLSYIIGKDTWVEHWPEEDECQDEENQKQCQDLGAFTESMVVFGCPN

## CCGGUGACUCAAUAGUCCGUACGUUCCCG [8491-94_27]
[1]; all U = NapdU, SB18T0.01, 37C
  Kd: 0.0658 nM
[2]
  IC50: 24.6 nM

## CCGGUGACUCAAUAGUCCGUACGUUCCCGG [8491-94_26]
[1]; all U = NapdU, SB18T0.01, 37C
  Kd: 0.0511 nM
[2]
  IC50: 15.1 nM

## CGGUGACUCAAUAGUCCGUACGUUCCCG [8491-94_53]
[1]; all U = NapdU, SB18T0.01, 37C
  Kd: 0.0334 nM
[2]
  IC50: 17.1 nM

## CGGUGACUCAAUAGUCCGUACGUUCCCG [8491-94_69]
[1]; P = NapdU (all U), 2'-OMe A11, SB18T0.01, 5 mM MgCl2, 37 C
  Kd: 0.272 nM

## CGGUGACUCAAUAGUCCGUACGUUCCCG [8491-94_70]
[1]; P = NapdU (all U), 2'-OMe P12, SB18T0.01, 5 mM MgCl2, 37 C
  Kd: 0.338 nM

## CGGUGACUCAAUAGUCCGUACGUUCCCG [8491-94_71]
[1]; P = NapdU (all U), 2'-OMe A13, SB18T0.01, 5 mM MgCl2, 37 C
  Kd: 0.0256 nM

## CGGUGACUCAAUAGUCCGUACGUUCCCG [8491-94_72]
[1]; all U = NapdU, 2'-OMe at G14, SB18T0.01, 37C
  Kd: 6.17 nM

## CGGUGACUCAAUAGUCCGUACGUUCCCG [8491-94_73]
[1]; all U = NapdU, 2'-OMe at NapdU15, SB18T0.01, 37C
  Kd: 1.32 nM

## CGGUGACUCAAUAGUCCGUACGUUCCCG [8491-94_74]
[1]; P = NapdU (all U), 2'-OMe C16, SB18T0.01, 5 mM MgCl2, 37 C
  Kd: 0.192 nM

## CGGUGACUCAAUAGUCCGUACGUUCCCG [8491-94_75]
[1]; P = NapdU (all U), 2'-OMe C17, SB18T0.01, 5 mM MgCl2, 37 C
  Kd: 0.214 nM

## CGGUGACUCAAUAGUCCGUACGUUCCCG [8491-94_76]
[1]; all U = NapdU, 2'-OMe at G18, SB18T0.01, 37C
  Kd: 0.93 nM

## CGGUGACUCAAUAGUCCGUACGUUCCCG [8491-94_77]
[1]; P = NapdU (all U), 2'-OMe P19, SB18T0.01, 5 mM MgCl2, 37 C
  Kd: 0.0262 nM

## CGGUGACUCAAUAGUCCGUACGUUCCCG [8491-94_78]
[1]; P = NapdU (all U), 2'-OMe A20, SB18T0.01, 5 mM MgCl2, 37 C
  Kd: 0.0718 nM

## CGGUGACUCAAUAGUCCGUACGUUCCCG [8491-94_79]
[1]; P = NapdU (all U), 2'-OMe C21, SB18T0.01, 5 mM MgCl2, 37 C
  Kd: 0.273 nM

## CGGUGACUCAAUAGUCCGUACGUUCCCG [8491-94_80]
[1]; P = NapdU (all U), 2'-OMe G22, SB18T0.01, 5 mM MgCl2, 37 C
  Kd: 0.0678 nM

## CGGUGACUCAAUAGUCCGUACGUUCCCG [8491-94_81]
[1]; P = NapdU (all U), 2'-OMe P23, SB18T0.01, 5 mM MgCl2, 37 C
  Kd: 0.0243 nM

## CGGUGACUCAAUAGUCCGUACGUUCCCG [8491-94_82]
[1]; all U = NapdU, 2'-OMe at NapdU24, SB18T0.01, 37C
  Kd: 0.0118 nM

## CGGUGACUCAAUAGUCCGUACGUUCCCG [8491-94_83]
[1]; P = NapdU (all U), 2'-OMe C25, SB18T0.01, 5 mM MgCl2, 37 C
  Kd: 0.0488 nM

## CGGUGACUCAAUAGUCCGUACGUUCCCG [8491-94_84]
[1]; P = NapdU (all U), 2'-OMe C26, SB18T0.01, 5 mM MgCl2, 37 C
  Kd: 0.0738 nM

## CGGUGACUCAAUAGUCCGUACGUUCCCG [8491-94_85]
[1]; P = NapdU (all U), 2'-OMe C27, SB18T0.01, 5 mM MgCl2, 37 C
  Kd: 0.0524 nM

## CGGUGACUCAAUAGUCCGUACGUUCCCG [8491-94_86]
[1]; P = NapdU (all U), 2'-OMe G28, SB18T0.01, 5 mM MgCl2, 37 C
  Kd: 0.0344 nM

## CGGUGACUCAAUAGUCCGUACGUUCCCG [8491-94_88]
[1]; all U = NapdU, 2'-OMe at 1,3,5,7,13,28, SB18T0.01, 37C
  Kd: 0.0248 nM

## CGGUGACUCAAUAGUCCGUACGUUCCCG [8491-94_89]
[1]; all U = NapdU, 2'-OMe at 1,3,5,7,10,13,28, SB18T0.01, 37C
  Kd: 0.0173 nM

## CGGUGACUCAAUAGUCCGUACGUUCCCG [8491-94_93]
[1]; all U = NapdU, 2'-OMe at 1,2,3,5,7,10,13,19,23,24,26,27,28, SB18T0.01, 37C
  Kd: 0.0152 nM

## CGGUGACUCAAUAGUCCGUACGUUCCCG [8491-94_94]
[1]; all U = NapdU, 2'-OMe at 1,2,3,5,7,10,13,19,23-28, SB18T0.01, 37C
  Kd: 0.0557 nM

## CGGUGACUCAAUAGUCCGUACGUUCCCG [8491-94_95]
[1]; all U = NapdU, 2'-OMe at 1,2,3,5,7,10,13,19,20,23-28, SB18T0.01, 37C
  Kd: 0.0357 nM

## CGGUGACUCAAUAGUCCGUACGUUCCCG [8491-94_96]
[1]; all U = NapdU, 2'-OMe at 1,2,3,5,7,9,10,13,19,20,23-28, SB18T0.01, 37C
  Kd: 0.0364 nM

## CGGUGACUCAAUAGUCCGUACGUUCCCG [8491-94_101]
[1]; all U = NapdU, 2'-OMe at 1,2,3,5,7,9,10,13,20,22,25-28, SB18T0.01, 37C
  Kd: 0.219 nM

## CGGUGACUCAAUAGUCCGUACGUUCCCGG [8491-94_29]
[1]; all U = NapdU, SB18T0.01, 37C
  Kd: 0.0581 nM

## CGGUGACUCAAUAGUCCGUACGUUCCCGG [8491-94_30]
[1]; all U = NapdU, C3-spacer replaces C1, SB18T0.01, 37C
  Kd: 0.0622 nM

## CGGUGACUCAAUAGUCCGUACGUUCCCGG [8491-94_31]
[1]; all U = NapdU, C3-spacer replaces C2, SB18T0.01, 37C
  Kd: 0.14 nM

## CGGUGACUCAAUAGUCCGUACGUUCCCGGUCCGAACGCGGAGGA [8491-94_9]
[1]; all U = NapdU, SB18T0.01, 37C
  Kd: 0.243 nM

## CGGUGACUCAAUAGUCCGUACGUUCCG [8491-94_87]
[1]; all U = NapdU, SB18T0.01, 37C
  Kd: 0.154 nM

## CGGUGACUCAAUAGUCCGUATGUUCCCG [8491-94_132]
[1]; all P = NapdU, T = dT, 2'-OMe at 1,2,3,5,7,9,10,13,19,20,22-28, SB18T0.01, 37C
  Kd: 12.7 nM

## CGGUGACUCAAUAGUCGUACGUUCCCG [8491-94_58]
[1]; all U = NapdU, C3-spacer replaces C17, SB18T0.01, 37C
  Kd: 0.787 nM

## CGGUGACUCAAUAGUCGUACGUUCCCG [8491-94_98]
[1]; all U = NapdU, 2'-OMe at 1,2,3,5,7,9,10,13,19,20,22-28, C3-spacer replaces C17, SB18T0.01, 37C
  Kd: 0.095 nM

## CGGUGACUCAAUAGUCGUACGUUCCG [8491-94_56]
[1]; all U = NapdU, C3-spacer replaces C17, C25, SB18T0.01, 37C
  Kd: 0.0464 nM

## CGGUGACUCAAUAGUCGUACGUUCCG [8491-94_99]
[1]; all U = NapdU, 2'-OMe at 1,2,3,5,7,9,10,13,19,20,22,23,24,26,27,28, C3-spacer replaces C17, C25, SB18T0.01, 37C
  Kd: 0.167 nM

## CGGUGACUCAAUAGUCGUATGUUCCCG [8491-94_133]
[1]; all P = NapdU, T = dT, 2'-OMe at 1,2,3,5,7,9,10,13,19,20 and all residues after T21, C3-spacer replaces C17, SB18T0.01, 37C
  Kd: 5.06 nM

## CGGUGACUUAGUCCGUACGUUCCCG [8491-94_57]
[1]; all U = NapdU, hexaethylene glycol (Heg) replaces C9-A10-A11, SB18T0.01, 37C
  Kd: 0.245 nM

## CGGUGAUAAUAGUCGUACGUUCCG [8491-94_55]
[1]; all U = NapdU, C3-spacer replaces C7, C9, C17, C25, SB18T0.01, 37C
  Kd: 0.0415 nM

## CGGUGAUCAAUAGUCGUACGUUCCG [8491-94_54]
[1]; all U = NapdU, C3-spacer replaces C7, C17, C25, SB18T0.01, 37C
  Kd: 0.0221 nM

## CGGUGAUCAAUAGUCGUACGUUCCG [8491-94_100]
[1]; all U = NapdU, 2'-OMe at 1,2,3,5,9,10,13,19,20,22,23,24,26,27,28, C3-spacer replaces C7, C17, C25, SB18T0.01, 37C
  Kd: 0.0794 nM

## CGGUGAUCAAUAGUCGUACGUUCCG [8491-94_102]
[1]; all U = NapdU, 2'-OMe at 1,2,3,5,10,13,26,27,28, C3-spacer replaces C7, C17, C25, SB18T0.01, 37C
  Kd: 0.0603 nM

## GGGUGACUCAAUAGUCCGUACAUUCCCC [8491-94_135]
[1]; all P = NapdU, 2'-OMe at 1,2,3,5,7,9,10,13,19,20,22-28, SB18T0.01, 37C
  Kd: 15.3 nM

## GGGUGACUCAAUAGUCCGUACGUUCCCC [8491-94_127]
[1]; all U = NapdU, 2'-OMe at 1,2,3,5,7,9,10,13,19,20,22-28, SB18T0.01, 37C
  Kd: 0.045 nM

## GGGUGACUCAAUAGUCGUACAUUCCCC [8491-94_136]
[1]; [3]
  Kd: 9.1 nM

## GGGUGACUCAAUAGUCGUACGUUCCCC [8491-94_134]
[1]; [3]
  Kd: 0.107 nM

## TGGUGACUCAAUAGUCCGUACGUUCCCA [8491-94_128]
[1]; all P = NapdU, T1 = dT, 2'-OMe at 2,3,5,7,9,10,13,19,20,22-28, SB18T0.01, 37C
  Kd: 0.038 nM

## TGGUGACUCAAUAGUCCGUATGUUCCCA [8491-94_130]
[1]; all P = NapdU, T = dT, 2'-OMe at 2,3,5,7,9,10,13,19,20,22-28, SB18T0.01, 37C
  Kd: 17.9 nM

## TGGUGACUCAAUAGUCGUACGUUCCCA [8491-94_129]
[1]; all P = NapdU, T1 = dT, 2'-OMe at 2,3,5,7,9,10,13,19,20,22-28, C3-spacer replaces C17, SB18T0.01, 37C
  Kd: 0.0179 nM

## TGGUGACUCAAUAGUCGUATGUUCCCA [8491-94_131]
[1]; all P = NapdU, T = dT, 2'-OMe at 2,3,5,7,9,10,13,19,20,22-28, C3-spacer replaces C17, SB18T0.01, 37C
  Kd: 5.64 nM

## UGACUCAAUAGUCCGUACGUUCCCGGUCCGAACGCGGAGGA [8491-94_10]
[1]; all U = NapdU, SB18T0.01, 37C
  Kd: 7.6 nM

## UGGUGACUCAAUAGUCCGUACAUUCCCA [8491-94_139]
[1]; all P = NapdU, U1 = 2'-OMe-U, 2'-OMe at 1,2,3,5,7,9,10,13,19,20,22-28, SB18T0.01, 37C
  Kd: 26.7 nM

## UGGUGACUCAAUAGUCGUACAUUCCCA [8491-94_138]
[1]; [4]
  Kd: 18.2 nM

## UGGUGACUCAAUAGUCGUACGUUCCCA [8491-94_137]
[1]; [4]
  Kd: 0.119 nM
